Assays:
[1] = mouse, in vivo
Experimental: Blood Circulation Time, Tissue Retention Time, and Bio-distribution. CD-1 mice (25-30 g, a group of four mice were tested) were anesthetized with isoflurane. Appropriate dosages of Gd-CA1.CD2 or Gd-DTPA were i.v. injected (via tail vein). Blood (~50 μl) samples were collected via orbital sinus of the mouse at different time points. The mouse was euthanized at the final time point. Tissue samples from kidney, liver, heart, and lung, were collected. Serum samples were prepared from the collected blood. For the bio-distribution analyses, the animals were euthanized at single time point (indicated) after i.v. administration of the contrast agent (indicated). The organ/tissue samples were collected. Tissue extracts were freshly made from collected samples using commercially available tissue extracting kits (Qiagen). CA1.CD2 was detected and quantified by immunoblotting and Sandwich-ELISA using a monoclonal antibody (OX45, detecting antibody) and a home made polyclonal antibody (PabCD2, capture antibody). A series of known amounts of CA1.CD2 samples mixed with blank mouse scrum or tissue extracts were used as standard in Sandwich-ELISA. ELISA signal from HRP was monitored using a Fluorstar fluorescence microplate reader. For quantification of Gd^3+ in the serum and tissue samples one hour (or indicated times) after the contrast agent administration, animals were sacrificed and critical organs were collected, and the tissues were then digested with concentrated nitric acid at 120-130° C. with proper amount of ^157Gd spike as an internal marker. The digested solution was analyzed by ICP-MS (Element 2) using an isotope dilution method.
CD-1 mice (25-30 g) were anesthetized with isoflurane. Appropriate dosages of Gd-CA1.CD2 and its PEgylated variants (with Gd and ^153Gd) or Gd-DTPA were i.v. injected (via tail vein). Blood (~50 μl) samples were collected via orbital sinus of the mouse at different time points. The mouse was euthanized at the final time point. Tissue samples from kidney, liver, heart, and lung were collected. Serum samples were prepared from the collected blood. For the bio-distribution analyses, the animals were euthanized at single time point (indicated) after i.v. administration of the contrast agent (indicated). The organ/tissue samples were collected. Tissue extracts were freshly made from collected samples using commercially available tissue extracting kits (Qiagen). CA1.CD2 and its variants were detected and quantified by immunoblotting and Sandwich-ELISA using a monoclonal antibody (OX45, detecting antibody) and a home made polyclonal antibody (PabCD2, capture antibody). A series of known amounts of CA1.CD2 samples mixed with blank mouse serum or tissue extracts were used as standard in Sandwich-ELISA. ELISA signal from HRP was monitored using a Fluorstar fluorescence microplate reader. For quantification of Gd^3+ in the serum and tissue samples one hour (or indicated times) after the contrast agent administration, animals were sacrificed and critical organs were collected, and the tissues were then digested with concentrated nitric acid at 120-130° ° C. with proper amount of ^153Gd spike as an internal marker. The digested solution was analyzed.

[2] = test system: AU565 cells; assay: Cell binding by immuno-fluorescence staining; assay type: cell-based; conditions: 37 and 4° C.
Excerpt: (§1) We first examined whether the designed CA1.HER2/Affi can target cancer cells by cell binding analyses. We used two cancer cell lines for the binding analyses. AU565 is derived from breast carcinoma. EMT6 is a mouse mammary tumor cell line. AU565 cells express very high levels of HER2. The EMT is regarded as a HER2 negative cell line. Binding of the Gd-CA1.HER2/Affi to the cancer cells was first analyzed by immuno-fluorescence staining using a polyclonal antibody against PEGylated parental protein CA1.CD2 (PAbPGCA1).

[3] = In vitro r1 and r2 proton relaxivity; assay type: physicochemical; conditions: 3.0 T; 50 μM designed agents, 100 μM Gd-DTPA
[4] = test system: EMT6 cells; assay: Cell binding by immuno-fluorescence staining; assay type: cell-based, mouse
Excerpt: as §1

[5] = test system: CD-1 mice; assay: Mouse MR imaging; assay type: in vivo
Experimental: (§2) Mouse MR Imaging. Care of experimental animals was in accordance with institutional guidelines. CD-1 mice (25-30 g, four mice were imaged) were anesthetized with an isoflurane gas mixture. The anesthetized animal was positioned and stabilized with soft-supporting material (e.g., foam) in the scanner in the coil cradle and was kept warm during the MRI scan. The mice were scanned prior to the administration of any contrast agent (pre-contrast). Approximately 50 μl of Gd-CA1.CD2 (~1.2 mM) or Gd-DTPA (~300 mM) were injected into the animal via the tail vein. MR images were collected at different times (indicated). For T1 weighted imaging at 3T, spin echo sequence with TE/TR=15 ms/500 ms was employed. Rectangular Field of View (FOV) at 100/40 mm, an acquisition matrix of 196^2 and 1.1 mm slice thickness without gap were used. Images were collected from both transverse and coronal sections. The in-plane resolution of images was less than 0.5 mm after they were reconstructed to the matrix of 196^2. For T2 weighted imaging at 9.4T, MR images were recorded using a multi-echo Carr-Purcell-Meiboom-Gill (CPMG) sequence. The data were collected and processed by Dicomworks software. The MR signal intensity in several organs was ascertained by the average intensity in ROIs or points within the organs. Signal intensity for each organ was normalized to that of the leg muscle.
as §2, with “Care” for “Mouse MR Imaging. Care”, “(e.g.” for “(e.g.,”

B1: CA1.CD2: designed Gd^3+-binding protein, domain 1 of rat CD2 with ligand residues Glu15, Glu56, Asp58, Asp62, Asp64 (protein)
chain: RDSGTVWGALGHGIELNIPNFQMTDDIDEVRWERGSTLVAEFKRKMKPFLKSGAFEIDANGDLDIKNLTRDDSGTYNVTVYSTNGTRILNKALDLRILE
time first detectable in the kidney [1]: 15 min
time of peak in the kidney [1]: 4 to 5 h
injected dose remaining in the kidney ([1]; 15 h): less than 10%
time of sharp decrease in blood concentration of Gd^3+ and CA1.CD2 ([1]; iv): about 50 minutes
binding to AU565 cells [2]: did not bind to either of the tested cultured cells
contrast enhancement in T1 weighted imaging of samples [3]: did not lead to significant enhancement
binding to EMT6 cells [4]: did not bind to either of the tested cultured cells

B2: Gd-CA1.CD2: CA1.CD2 in complex with Gd^3+ (protein)
chain: RDSGTVWGALGHGIELNIPNFQMTDDIDEVRWERGSTLVAEFKRKMKPFLKSGAFEIDANGDLDIKNLTRDDSGTYNVTVYSTNGTRILNKALDLRILE
MRI contrast enhancement, T1 weighted spin echo ([5]; 3T, ~2.4 μmole Gd/kg via tail vein): greatest enhancement of the MRI contrast observed in the kidney
T2 contrast enhancement ([5]; 9.4T): strong T2 contrast enhancement
T1 contrast enhancement in the kidney cortex ([5]; 18 hours after administration): diminished substantially
duration of contrast enhancement at multiple organs ([5]; mouse, in vivo): 4 to 7 h
time remaining in blood circulation [1]: more than 3 hours
time without significant decrease in CA1.CD2 levels in blood ([1]; iv): 45 min
contrast enhancement in T1 weighted imaging of samples [3]: able to introduce contrast enhancement
